Values belong to the binder of their own block, whether it stands above or below them.
Molecular target: T1, human CD20 antigen (human, UniProt P11836 1-297)
T1 construct: whole, on cells; also called MS4A1
T1 sequence (looked up): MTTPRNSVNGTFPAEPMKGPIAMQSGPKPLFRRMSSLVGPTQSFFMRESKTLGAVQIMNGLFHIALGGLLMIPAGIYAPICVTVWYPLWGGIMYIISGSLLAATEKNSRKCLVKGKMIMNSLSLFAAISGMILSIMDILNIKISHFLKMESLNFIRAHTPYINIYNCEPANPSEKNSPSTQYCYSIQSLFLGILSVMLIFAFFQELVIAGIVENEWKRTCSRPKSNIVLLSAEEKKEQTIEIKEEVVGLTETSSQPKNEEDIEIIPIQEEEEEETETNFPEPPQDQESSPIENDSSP
Experiment: competition flow cytometry against FITC-conjugated fr1F5 (FIG. 6)

binding result: binds
B1: framework-re-engineered 1F5 antibody (antibody, V domains shown)
VH: QVQLVASGAEVNKPGASVKVSCKASGYTFTSYNMHWVRQPPGRGLEWIGAIYPGNGDTSYNQKFKGRVTITADKSTSTAYMELSSLRSEDTAVYYCARSHYGSNYVDYFDYWGQGTTVTVSS
VL: DIQLTQSPSSLSASVGDRVTITCRASSSLSFMHWYQQKPGQAPVPVIYATSNLASGVPSRFSGSGSGTEFTLTISSLQPEDFATYFCHQWSSNPLTFGAGTKLTVLR
notes: also called fr1F5

binding result: binds
B2: murine 1F5 antibody (antibody, V domains shown)
VH: QVQLRQPGAELVKPGASVKMSCKASGYTFTSYNMHWVKQTPGQGLEWIGAIYPGNGDTSYNQKFKGKATLTADKSSSTAYMQLSSLTSEDSAVYYCARSHYGSNYVDYFDYWGQGTTLTVSS
VL: QIVLSQSPAILSASPGEKVTMTCRASSSLSFMHWYQQKPGSSPKPWIYATSNLASGVPARFSGSGSGTSYSLTISRVEAEDAATYFCHQWSSNPLTFGAGTKLELKR
notes: Mouse IgG with a kappa light chain, from hybridoma ATCC HB-9645; also called anti-CD20 mAb 1F5

From US20100197896A1 (published 2010)
